In patent US20260274921A1 (ADAPTOCUE, published 2026):

What was measured:
[1] = target: T1, human CD47 (cluster of differentiation 47), on cells (human, UniProt Q08722 19-323); assay: FACS on primary human platelets, pH 7.3
T1 construct: whole, on cells; also called IAP; integrin-associated protein
Method: Human primary platelets were seeded into 96-well plate at 1×10⁶/well and incubated with Fc blocking antibody at room temperature. […] After washing the platelets with 1×PBS+2% FBS at pH 7.3, FITC-labelled anti-human IgG Fc secondary antibody (Abcam, CAT #ab6854) were added and incubated at 4° C. for 30 minutes at pH 7.3. After washing, the platelets were then analyzed by FACS in 1×PBS+2% FBS at pH 7.3.

[2] = target: T2, His-tagged CD47 extracellular domain (ECD) protein (Abclonal, CAT #RP01306) (human, UniProt Q08722 19-139); assay: ELISA, immobilized His-tagged CD47 ECD, fusion protein as analyte
T2 construct: extracellular domain; Bought; also called recombinant human CD47 protein with His-tag; His-tag human CD47 ECD protein

B1: MP-24, SIRPαV2 IgV WT-IgG1 Fc hole silent + aCD3 VH-CH1-IgG1 Fc knob silent + aCD3 VL-CL (bispecific antibody)
chain: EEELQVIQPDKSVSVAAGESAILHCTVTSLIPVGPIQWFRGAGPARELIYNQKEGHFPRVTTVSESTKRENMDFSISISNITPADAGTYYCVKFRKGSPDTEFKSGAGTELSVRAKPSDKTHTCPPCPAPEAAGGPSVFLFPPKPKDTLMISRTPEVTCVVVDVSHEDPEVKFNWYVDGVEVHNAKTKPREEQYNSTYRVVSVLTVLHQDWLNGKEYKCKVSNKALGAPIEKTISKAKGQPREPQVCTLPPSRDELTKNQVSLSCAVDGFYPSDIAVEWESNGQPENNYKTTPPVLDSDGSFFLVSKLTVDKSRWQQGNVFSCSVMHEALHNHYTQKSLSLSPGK
heavy: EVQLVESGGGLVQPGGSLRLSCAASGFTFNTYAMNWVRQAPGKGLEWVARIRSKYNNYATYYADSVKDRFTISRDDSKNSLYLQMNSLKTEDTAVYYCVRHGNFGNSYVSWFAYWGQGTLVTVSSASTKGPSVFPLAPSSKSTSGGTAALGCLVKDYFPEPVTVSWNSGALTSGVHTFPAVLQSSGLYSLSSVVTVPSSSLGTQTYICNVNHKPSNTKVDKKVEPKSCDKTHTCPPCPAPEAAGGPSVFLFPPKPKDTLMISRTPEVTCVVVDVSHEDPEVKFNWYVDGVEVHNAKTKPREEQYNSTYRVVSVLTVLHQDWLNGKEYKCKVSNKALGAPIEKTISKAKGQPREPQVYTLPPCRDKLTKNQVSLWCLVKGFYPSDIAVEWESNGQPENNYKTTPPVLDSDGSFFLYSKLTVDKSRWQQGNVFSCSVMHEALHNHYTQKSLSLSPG
light: QAVVTQEPSLTVSPGGTVTLTCRSSTGAVTTSNYANWVQQKPGQAPRGLIGGTNKRAPWTPARFSGSLLGGKAALTITGAQAEDEADYYCALWYSNLWVFGGGTKLTVLGQPKAAPSVTLFPPSSEELQANKATLVCLISDFYPGAVTVAWKADSSPVKAGVETTTPSKQSNNKYAASSYLSLTPEQWKSHRSYSCQVTHEGSTVEKTVAPTECS
notes: Format FV-67; one wild type SIRPαV2 IgV monomer; also called monovalent wild type SIRPαV2 IgV-IgG1 Fc protein
B1: binds [1]; binds [2].
